In patent publication US20170306015A1 (DEUTSCHES KREBSFORSCHUNGSZENTRUM STIFTUNG DES FFENTLICHEN …, published 2017) one finds Kd data, which are given here for one molecule.

The term Kd denotes the equilibrium constant for the complex coming apart.

In the experiment the target is T1, L1-Fc (human L1-Fc protein comprising the ectodomain of L1) (human, UniProt P32004 20-1120).
T1 construct: extracellular domain; also called L1CAM; CD171; not shown: Fc part
Description: SPR, BIAcore 3000, L1-Fc immobilised on CM5 chip, antibody injected. As to the method: Affinity to L1 may be determined by methods known in the art, as for example by surface plasmon resonance. The binding analysis for L1-OV52.24 was performed using a BIAcore 3000 equipped with a CM5 sensor chip. Briefly, a BIAcore CM5 chip was activated with EDC/NHS and various levels of L1-Fc were captured onto the activated surface. The remaining active sites were blocked by ethanolamine/HCl. L1-OV52.24 was bound to the L1-Fc surface and allowed to dissociate over time. The association and dissociation phases for each injection over each density surface were subjected to kinetic analysis.
The binding analysis was performed using a BIAcore 3000 equipped with a CM5 sensor chip. Briefly, a BIAcore CM5 chip was activated with EDC/NHS and various levels of L1-Fc were captured onto the activated surface. The remaining active sites were blocked by ethanolamine/HCl. L1-mAb were bound to the L1-Fc surface and allowed to dissociate over time. The association and dissociation phases for each injection over each density surface were subjected to kinetic analysis.
On the technique in general: SPR reads the build-up and loss of mass on a sensor chip optically.

T1 sequence (P32004 20-1120): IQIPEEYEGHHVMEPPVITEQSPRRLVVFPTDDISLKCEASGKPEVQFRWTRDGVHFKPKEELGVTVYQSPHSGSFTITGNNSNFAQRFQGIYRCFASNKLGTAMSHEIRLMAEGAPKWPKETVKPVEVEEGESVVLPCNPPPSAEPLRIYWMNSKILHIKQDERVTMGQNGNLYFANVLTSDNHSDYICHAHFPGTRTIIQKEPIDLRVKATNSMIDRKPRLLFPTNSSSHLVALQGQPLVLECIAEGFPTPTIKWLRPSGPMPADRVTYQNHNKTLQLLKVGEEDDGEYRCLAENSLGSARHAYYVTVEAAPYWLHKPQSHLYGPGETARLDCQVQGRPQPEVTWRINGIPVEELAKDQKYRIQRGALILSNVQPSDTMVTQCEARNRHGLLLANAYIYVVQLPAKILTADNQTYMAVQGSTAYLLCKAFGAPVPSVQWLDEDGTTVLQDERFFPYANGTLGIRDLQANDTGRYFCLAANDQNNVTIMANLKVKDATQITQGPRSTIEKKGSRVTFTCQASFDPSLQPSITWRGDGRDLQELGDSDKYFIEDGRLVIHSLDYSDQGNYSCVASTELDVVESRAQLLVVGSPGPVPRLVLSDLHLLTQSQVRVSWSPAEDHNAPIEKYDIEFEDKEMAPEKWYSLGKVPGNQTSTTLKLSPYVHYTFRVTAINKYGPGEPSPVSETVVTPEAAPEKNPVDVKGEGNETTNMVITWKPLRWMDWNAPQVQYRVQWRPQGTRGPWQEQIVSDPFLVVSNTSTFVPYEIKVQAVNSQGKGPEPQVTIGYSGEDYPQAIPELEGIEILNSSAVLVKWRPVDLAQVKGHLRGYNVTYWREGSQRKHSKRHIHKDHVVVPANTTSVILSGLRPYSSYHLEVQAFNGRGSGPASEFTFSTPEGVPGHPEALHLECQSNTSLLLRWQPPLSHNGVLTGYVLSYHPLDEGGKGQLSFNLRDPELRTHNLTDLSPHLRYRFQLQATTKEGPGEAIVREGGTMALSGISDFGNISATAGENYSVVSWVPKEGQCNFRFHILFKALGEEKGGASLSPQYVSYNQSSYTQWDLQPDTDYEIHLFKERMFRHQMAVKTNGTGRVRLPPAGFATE

B1: monoclonal antibody L1-OV52.24 (antibody, IgG1, V domains shown)
VH: EVQLQQSGAELVRPGALVKLSCKASGFNIKDYYMQWVKQRPEQGLEWIGWIDPENGKTVFDPKFRGKASISADTSSNTAYLQLSSLTSEDTAVYYCARWNPLAFWGQGTLVTVSS
VL: DIVMTQSQKFMSTSVGDRVSVTCKASQNVGTNVAWYQQKPGHSPKALIYSTSYRYSGVPDRFTGSGSGTDFTLTIRNVQSEDLAEYFCQQYNTYPYTFGGGTKLEIK
notes: also called mAb L1-OV52.24; L1CAM mAb OV52.24
In turn, B1 gave a Kd of 2.41 nM.
